Legend:
[1] = test system: AncSZ; assay: phosphorylation enrichment, bacterial display (enrichment ratio); higher = better substrate or ligand; peptides without Tyr show the background
[2] = molecular target: EPHB1 (UniProt P54762); assay: as above
[3] = molecular target: EPHB2 (UniProt P29323); assay: as above
[4] = molecular target: FGFR1 (UniProt P11362); assay: as above
[5] = molecular target: FGFR3 (UniProt P22607); assay: as above
[6] = test system: Fer (mouse); assay: as above
[7] = molecular target: Fes (UniProt P07332); assay: as above
[8] = molecular target: Fyn (UniProt P06241); assay: as above
Sequence of Fyn (P06241 whole entry, looked up): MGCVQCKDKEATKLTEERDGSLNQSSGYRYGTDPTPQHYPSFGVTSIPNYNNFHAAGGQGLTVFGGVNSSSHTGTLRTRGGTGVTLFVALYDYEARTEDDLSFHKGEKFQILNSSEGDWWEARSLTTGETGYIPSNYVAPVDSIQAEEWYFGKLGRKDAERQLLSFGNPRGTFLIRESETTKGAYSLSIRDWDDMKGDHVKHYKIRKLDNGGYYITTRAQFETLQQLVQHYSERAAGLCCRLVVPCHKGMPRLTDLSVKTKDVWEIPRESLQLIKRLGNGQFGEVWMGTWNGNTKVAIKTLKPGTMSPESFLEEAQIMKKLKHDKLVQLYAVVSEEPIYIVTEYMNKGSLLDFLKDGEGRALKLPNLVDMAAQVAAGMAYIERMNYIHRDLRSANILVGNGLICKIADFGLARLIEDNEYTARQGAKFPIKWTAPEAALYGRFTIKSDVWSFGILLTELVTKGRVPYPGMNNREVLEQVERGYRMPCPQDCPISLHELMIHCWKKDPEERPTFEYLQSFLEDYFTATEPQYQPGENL

[9] = molecular target: Hck (UniProt P08631); assay: as above
Sequence of Hck (P08631 whole entry, looked up): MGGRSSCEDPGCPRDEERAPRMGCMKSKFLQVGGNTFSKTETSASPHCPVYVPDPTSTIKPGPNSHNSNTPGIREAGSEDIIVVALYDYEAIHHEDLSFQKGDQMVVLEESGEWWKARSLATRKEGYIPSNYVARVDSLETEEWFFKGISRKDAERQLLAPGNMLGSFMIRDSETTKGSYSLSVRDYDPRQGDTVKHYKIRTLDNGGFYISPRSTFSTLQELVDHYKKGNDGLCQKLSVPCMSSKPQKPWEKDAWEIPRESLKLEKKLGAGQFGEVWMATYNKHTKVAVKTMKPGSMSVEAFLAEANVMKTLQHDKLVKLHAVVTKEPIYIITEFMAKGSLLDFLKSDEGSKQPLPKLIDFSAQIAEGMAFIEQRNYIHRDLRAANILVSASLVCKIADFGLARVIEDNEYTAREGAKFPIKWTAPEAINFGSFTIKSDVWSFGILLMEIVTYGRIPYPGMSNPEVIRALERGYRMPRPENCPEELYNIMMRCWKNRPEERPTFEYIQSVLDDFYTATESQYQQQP

[10] = molecular target: Jak2 (UniProt O60674); assay: as above
[11] = molecular target: MERTK (UniProt Q12866); assay: as above
Sequence of MERTK (Q12866 whole entry, looked up): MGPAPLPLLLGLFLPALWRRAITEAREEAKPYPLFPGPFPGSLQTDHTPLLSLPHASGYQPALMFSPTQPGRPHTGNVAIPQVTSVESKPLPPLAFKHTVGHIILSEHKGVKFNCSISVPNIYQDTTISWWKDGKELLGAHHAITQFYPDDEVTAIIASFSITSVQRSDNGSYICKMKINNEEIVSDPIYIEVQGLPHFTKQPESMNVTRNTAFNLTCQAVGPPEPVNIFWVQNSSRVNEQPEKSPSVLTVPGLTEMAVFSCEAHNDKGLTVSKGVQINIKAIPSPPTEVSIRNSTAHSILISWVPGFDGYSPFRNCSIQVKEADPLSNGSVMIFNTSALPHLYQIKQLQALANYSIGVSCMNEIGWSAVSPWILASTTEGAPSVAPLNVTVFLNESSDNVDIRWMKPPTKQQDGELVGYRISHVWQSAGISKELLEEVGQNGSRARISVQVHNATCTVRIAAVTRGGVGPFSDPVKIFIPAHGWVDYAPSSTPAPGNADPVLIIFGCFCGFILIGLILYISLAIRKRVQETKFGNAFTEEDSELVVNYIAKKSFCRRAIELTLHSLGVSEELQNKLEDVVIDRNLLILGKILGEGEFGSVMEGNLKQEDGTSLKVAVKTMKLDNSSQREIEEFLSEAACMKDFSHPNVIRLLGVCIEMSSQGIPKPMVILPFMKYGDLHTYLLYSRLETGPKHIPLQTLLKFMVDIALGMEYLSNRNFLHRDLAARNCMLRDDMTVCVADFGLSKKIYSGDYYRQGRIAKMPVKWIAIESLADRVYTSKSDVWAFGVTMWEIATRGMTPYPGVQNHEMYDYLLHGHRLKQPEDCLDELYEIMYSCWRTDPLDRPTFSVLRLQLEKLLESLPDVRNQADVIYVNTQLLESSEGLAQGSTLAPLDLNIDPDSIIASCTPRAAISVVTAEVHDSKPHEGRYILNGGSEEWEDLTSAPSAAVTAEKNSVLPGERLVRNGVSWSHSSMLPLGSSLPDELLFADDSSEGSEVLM

[12] = test system: c-Abl (mouse); assay: as above
[13] = test system: c-Src; assay: as above
[14] = molecular target: Grb2 SH2 (UniProt P62993); assay: SH2 binding enrichment of the phosphorylated peptide, bacterial display (enrichment ratio); higher = better substrate or ligand; peptides without Tyr show the background
[15] = molecular target: SHP2-C SH2; assay: as above
[16] = molecular target: c-Src SH2; assay: as above
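Wherever SH2 binding enrichment of the phosphorylated peptide, bacterial display is given: peptide library displayed on the E. coli surface as eCPX fusions, selected cells deep-sequenced, score is each peptide's frequency after selection divided by its frequency in the input.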
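Wherever phosphorylation enrichment, bacterial display is given: 11-residue human phosphosite peptides and single-mutation variants displayed on the E. coli surface, counted by deep sequencing, each peptide's frequency after selection divided by its frequency in the unselected input library; frequency after pTyr selection over input frequency; kinase dosed for 20-30% of maximal phosphorylation in three min.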

Sequence of FGFR3 (P22607 whole entry, looked up): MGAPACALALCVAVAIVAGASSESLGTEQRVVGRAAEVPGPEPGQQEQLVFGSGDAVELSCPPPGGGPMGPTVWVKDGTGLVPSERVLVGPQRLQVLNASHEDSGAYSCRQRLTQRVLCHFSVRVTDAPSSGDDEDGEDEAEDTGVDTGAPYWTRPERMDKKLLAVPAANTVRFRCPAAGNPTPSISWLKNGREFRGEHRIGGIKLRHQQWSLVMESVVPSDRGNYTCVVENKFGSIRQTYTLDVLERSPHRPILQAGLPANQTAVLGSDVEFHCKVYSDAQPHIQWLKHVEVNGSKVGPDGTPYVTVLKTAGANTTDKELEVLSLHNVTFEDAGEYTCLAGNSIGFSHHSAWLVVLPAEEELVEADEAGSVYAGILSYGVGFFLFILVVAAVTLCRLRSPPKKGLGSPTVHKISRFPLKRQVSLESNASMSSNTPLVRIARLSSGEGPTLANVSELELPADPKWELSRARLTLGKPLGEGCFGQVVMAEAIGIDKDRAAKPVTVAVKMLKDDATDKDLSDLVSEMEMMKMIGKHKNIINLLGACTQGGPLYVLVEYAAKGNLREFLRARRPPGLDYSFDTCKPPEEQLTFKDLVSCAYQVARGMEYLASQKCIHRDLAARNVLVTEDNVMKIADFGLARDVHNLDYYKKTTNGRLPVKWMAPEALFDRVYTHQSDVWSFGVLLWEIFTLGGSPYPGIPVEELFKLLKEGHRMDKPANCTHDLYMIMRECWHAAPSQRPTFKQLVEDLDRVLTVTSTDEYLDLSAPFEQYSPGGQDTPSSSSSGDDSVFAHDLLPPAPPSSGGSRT
Sequence of FGFR1 (P11362 whole entry, looked up): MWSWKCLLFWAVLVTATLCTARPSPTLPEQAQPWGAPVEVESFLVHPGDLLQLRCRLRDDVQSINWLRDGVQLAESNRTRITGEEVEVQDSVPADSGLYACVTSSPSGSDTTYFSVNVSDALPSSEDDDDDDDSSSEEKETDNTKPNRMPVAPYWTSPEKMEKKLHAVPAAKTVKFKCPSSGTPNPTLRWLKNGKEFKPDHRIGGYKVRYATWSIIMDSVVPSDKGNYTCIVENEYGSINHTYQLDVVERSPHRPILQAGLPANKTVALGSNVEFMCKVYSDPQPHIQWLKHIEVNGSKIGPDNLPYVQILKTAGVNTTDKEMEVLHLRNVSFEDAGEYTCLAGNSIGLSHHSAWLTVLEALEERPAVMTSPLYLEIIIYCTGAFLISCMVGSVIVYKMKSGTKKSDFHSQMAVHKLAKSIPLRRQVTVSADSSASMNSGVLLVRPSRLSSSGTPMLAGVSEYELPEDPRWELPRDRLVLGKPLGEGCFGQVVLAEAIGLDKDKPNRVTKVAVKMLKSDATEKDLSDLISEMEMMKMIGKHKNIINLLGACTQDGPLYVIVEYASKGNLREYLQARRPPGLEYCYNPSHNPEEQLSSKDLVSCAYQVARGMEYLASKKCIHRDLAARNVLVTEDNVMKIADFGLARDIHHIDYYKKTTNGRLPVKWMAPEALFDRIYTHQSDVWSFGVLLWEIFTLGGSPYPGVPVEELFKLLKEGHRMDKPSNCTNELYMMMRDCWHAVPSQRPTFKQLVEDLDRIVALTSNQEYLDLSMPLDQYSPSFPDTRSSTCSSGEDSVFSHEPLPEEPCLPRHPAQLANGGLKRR
Sequence of EPHB1 (P54762 whole entry, looked up): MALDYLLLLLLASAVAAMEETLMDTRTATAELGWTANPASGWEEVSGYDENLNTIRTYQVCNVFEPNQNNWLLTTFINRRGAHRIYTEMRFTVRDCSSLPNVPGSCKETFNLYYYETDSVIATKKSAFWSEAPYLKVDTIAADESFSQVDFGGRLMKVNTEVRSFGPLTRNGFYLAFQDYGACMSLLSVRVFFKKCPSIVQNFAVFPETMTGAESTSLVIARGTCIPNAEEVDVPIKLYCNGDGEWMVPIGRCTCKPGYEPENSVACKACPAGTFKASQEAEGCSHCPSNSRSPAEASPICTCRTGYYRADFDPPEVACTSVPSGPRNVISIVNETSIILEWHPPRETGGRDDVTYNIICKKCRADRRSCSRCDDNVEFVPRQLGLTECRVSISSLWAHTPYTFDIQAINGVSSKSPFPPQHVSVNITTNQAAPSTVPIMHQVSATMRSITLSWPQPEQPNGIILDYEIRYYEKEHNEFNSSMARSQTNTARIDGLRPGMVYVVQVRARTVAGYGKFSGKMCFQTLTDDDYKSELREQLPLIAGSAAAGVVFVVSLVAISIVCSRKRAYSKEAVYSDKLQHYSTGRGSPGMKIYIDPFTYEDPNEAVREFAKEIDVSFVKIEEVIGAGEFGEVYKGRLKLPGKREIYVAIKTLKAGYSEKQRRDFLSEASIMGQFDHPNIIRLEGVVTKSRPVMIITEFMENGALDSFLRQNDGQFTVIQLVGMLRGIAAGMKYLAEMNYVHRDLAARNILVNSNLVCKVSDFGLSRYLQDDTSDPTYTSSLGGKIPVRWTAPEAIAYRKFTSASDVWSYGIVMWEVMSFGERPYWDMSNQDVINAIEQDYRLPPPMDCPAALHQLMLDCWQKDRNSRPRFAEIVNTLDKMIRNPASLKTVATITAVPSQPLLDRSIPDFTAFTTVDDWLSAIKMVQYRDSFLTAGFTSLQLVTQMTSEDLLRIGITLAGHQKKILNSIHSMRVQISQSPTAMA

Row | Sequence | SH2 binding enrichment [14] | SH2 binding enrichment [15] | SH2 binding enrichment [16] | phosphorylation enrichment [1] | phosphorylation enrichment [2] | phosphorylation enrichment [3] | phosphorylation enrichment [4] | phosphorylation enrichment [5] | phosphorylation enrichment [6] | phosphorylation enrichment [7] | phosphorylation enrichment [8] | phosphorylation enrichment [9] | phosphorylation enrichment [10] | phosphorylation enrichment [11] | phosphorylation enrichment [12] | phosphorylation enrichment [13]
1 | SLFNGYVYSGM [NEIL3_Y71_V76M] | 1.06 | 2.05 | 2.6 | 0.844 | 0.653 | 0.579 | 0.585 | 0.659 | 0.581 | 0.994 | 5.64 | 2.72 | 1.15 | 0.548 | 0.625 | 5.4
2 | SLIDMYSEVLA [OPA1_Y268_D273A] | 0.966 | 0.762 | 0.553 | 1.24 | 0.766 | 0.869 | 1.12 | 0.832 | 0.891 | 1.03 | 0.959 | 0.873 | 0.925 | 0.615 | 0.539 | 1.61
3 | SQGRQYQELPR [KCNH2_Y1009_R1005Q] | 0.82 | 0.545 | 1.41 | 0.666 | 0.354 | 0.402 | 0.483 | 0.477 | 0.402 | 0.568 | 0.45 | 0.668 | 0.517 | 0.412 | 0.473 | 0.423
4 | SRDDYYETIAM [NPY1R_Y347_D346Y] | 0.589 | 0.431 | 3.29 | 1.33 | 2.19 | 1.53 | 8.35 | 6.01 | 4.75 | 1.01 | 0.798 | 1.18 | 0.808 | 0.467 | 0.634 | 0.656
5 | SRFQFYFQQKG [CHKB_Y381] | 0.692 | 0.728 | 0.473 | 1.63 | 0.938 | 0.612 | 0.579 | 1.02 | 0.597 | 1.56 | 0.48 | 0.551 | 1.47 | 0.369 | 0.99 | 0.379
6 | SSAETYSRMRL [NBEAL2_Y1835] | 0.719 | 0.724 | 0.691 | 0.513 | 0.443 | 0.436 | 0.393 | 0.44 | 0.54 | 0.577 | 0.431 | 0.709 | 0.501 | 0.412 | 0.509 | 0.471
7 | SSNPEYLSASD [INSR_Y999] | 0.977 | 0.642 | 0.557 | 1.12 | 0.514 | 0.594 | 0.498 | 0.695 | 0.491 | 1 | 0.531 | 0.462 | 0.961 | 0.476 | 0.719 | 0.458
8 | SSREGYVSHHN [FAM83B_Y433] | 0.76 | 0.659 | 0.449 | 0.548 | 0.345 | 0.321 | 0.443 | 0.464 | 0.326 | 0.502 | 0.457 | 0.354 | 0.48 | 0.453 | 0.445 | 0.399
9 | SSTAMYSAAGR [PSMB1_Y8_P11A] | 0.897 | 0.609 | 0.774 | 0.451 | 0.35 | 0.364 | 0.512 | 0.342 | 0.442 | 0.455 | 0.403 | 0.755 | 0.458 | 0.511 | 0.444 | 0.424
10 | STKPQYQPGEN [SRC_Y530_E527K] | 0.833 | 1.09 | 0.417 | 0.575 | 0.363 | 0.36 | 0.389 | 0.412 | 0.311 | 0.579 | 0.363 | 0.361 | 0.63 | 0.395 | 0.519 | 0.396
11 | STSFDYCRVPM [BST2_Y8_YF] | 0.675 | 0.571 | 0.558 | 2.98 | 9.03 | 5.96 | 5.41 | 3.97 | 0.827 | 1.32 | 0.828 | 1.57 | 2.03 | 0.903 | 0.932 | 0.957
12 | STTSDYQWDFS [MTDH_Y364_V368F] | 0.821 | 0.637 | 0.573 | 1.36 | 0.905 | 0.776 | 1.24 | 1.27 | 0.598 | 1.1 | 0.473 | 0.524 | 1.14 | 0.409 | 0.736 | 0.58
13 | SVGGLYRDMGA [CBX8_Y321_G317V] | 0.72 | 0.53 | 0.393 | 0.699 | 0.567 | 0.43 | 0.541 | 0.561 | 0.446 | 0.791 | 0.408 | 0.481 | 0.734 | 0.483 | 0.555 | 0.385
14 | SVNIRYLLFPS [SERAC1_Y548] | 1.72 | 1.67 | 1.38 | 1.08 | 0.714 | 0.634 | 0.574 | 0.929 | 0.469 | 1.36 | 0.47 | 0.558 | 1.25 | 0.46 | 0.817 | 0.463
15 | SVQVDYMKTIL [GLYATL2_Y127] | 0.772 | 0.656 | 0.517 | 0.908 | 0.527 | 0.611 | 0.505 | 0.643 | 0.644 | 0.776 | 0.407 | 0.517 | 0.791 | 0.428 | 0.642 | 0.446
16 | SVSVNYGDQVQ [GRAP_Y101] | 0.941 | 0.651 | 0.487 | 0.748 | 0.443 | 0.483 | 0.481 | 0.561 | 0.442 | 0.902 | 0.409 | 0.416 | 0.794 | 0.545 | 0.804 | 0.429
17 | SYCYRYRCAPR [SUMF1_Y344_A348P] | 0.625 | 0.63 | 0.434 | 0.644 | 0.441 | 0.418 | 0.511 | 0.716 | 0.528 | 0.572 | 0.436 | 0.43 | 0.459 | 0.458 | 0.493 | 0.488
18 | TCFDKYTGSTF [FN1_Y101_N104S_YF] | 1.29 | 0.956 | 0.82 | 0.739 | 0.494 | 0.533 | 0.443 | 0.699 | 0.469 | 1.12 | 0.408 | 0.51 | 0.646 | 0.448 | 0.537 | 0.529

Further lines, with some results ahead:

Row | SH2 binding enrichment [14] | SH2 binding enrichment [15] | SH2 binding enrichment [16] | Sequence | phosphorylation enrichment [1] | phosphorylation enrichment [2] | phosphorylation enrichment [3] | phosphorylation enrichment [4] | phosphorylation enrichment [5] | phosphorylation enrichment [6] | phosphorylation enrichment [7] | phosphorylation enrichment [8] | phosphorylation enrichment [9] | phosphorylation enrichment [10] | phosphorylation enrichment [11] | phosphorylation enrichment [12] | phosphorylation enrichment [13]
19 | 0.861 | 0.814 | 0.522 | SLESAYPEGSQ [TTF1_Y357] | 0.877 | 0.463 | 0.574 | 0.61 | 0.629 | 0.457 | 0.968 | 0.539 | 0.593 | 0.712 | 0.366 | 0.601 | 0.406
20 | 0.789 | 0.772 | 0.696 | SLVVPYEPPEV [TP53_Y220_V216L] | 1.28 | 0.769 | 0.756 | 0.672 | 0.836 | 0.666 | 1.29 | 0.62 | 0.663 | 1.33 | 0.595 | 1.26 | 0.547
21 | 1.35 | 1.21 | 0.721 | SSPQLYLVPFL [TAF4_Y652_P651L] | 1.3 | 4.26 | 3.08 | 2.18 | 2.11 | 1.23 | 0.974 | 0.7 | 0.907 | 7 | 7.97 | 13.2 | 0.721
22 | 0.853 | 2.4 | 2.23 | SSQTVYQRVEG [TFR2_Y23] | 0.962 | 0.631 | 0.447 | 0.526 | 0.483 | 0.517 | 0.708 | 0.6 | 0.77 | 0.596 | 0.499 | 0.458 | 0.585
23 | 0.802 | 0.66 | 0.457 | SVTCAYSPALN [TP53_Y126_T125A] | 1.26 | 0.726 | 0.577 | 0.557 | 0.757 | 0.64 | 1.2 | 0.616 | 0.608 | 0.98 | 0.525 | 0.79 | 0.583
24 | 1.01 | 0.532 | 0.599 | SVTCTYSPALD [TP53_Y126_N131D] | 1.74 | 0.882 | 0.816 | 0.616 | 1.01 | 0.821 | 1.76 | 0.641 | 0.656 | 1.51 | 0.466 | 1.24 | 0.745
25 | 0.635 | 0.554 | 0.425 | SVTCTYSPAPN [TP53_Y126_L130P] | 1.12 | 0.517 | 0.581 | 0.495 | 0.83 | 0.503 | 1.14 | 0.435 | 0.501 | 0.999 | 0.362 | 0.776 | 0.509
26 | 0.698 | 0.574 | 0.422 | SVTCTYTPALN [TP53_Y126_S127T] | 1.43 | 0.633 | 0.639 | 0.5 | 0.811 | 0.478 | 1.29 | 0.49 | 0.511 | 1.24 | 0.404 | 0.88 | 0.455
27 | 0.672 | 0.787 | 0.491 | SVTSTYSPALN [TP53_Y126_C124S] | 0.641 | 0.437 | 0.426 | 0.511 | 0.398 | 0.436 | 0.712 | 0.432 | 0.459 | 0.465 | 0.379 | 0.586 | 0.488
28 | 0.89 | 0.73 | 0.735 | SVVVPYEPPDV [TP53_Y220_E224D] | 0.984 | 0.554 | 0.528 | 0.524 | 0.612 | 0.456 | 0.932 | 0.429 | 0.447 | 0.752 | 0.337 | 0.603 | 0.415
29 | 0.874 | 0.778 | 0.769 | SVVVPYEPPED [TP53_Y220_V225D] | 1.31 | 0.607 | 0.641 | 0.545 | 0.759 | 0.549 | 1.4 | 0.479 | 0.544 | 1.15 | 0.441 | 0.772 | 0.491
30 | 0.88 | 0.658 | 0.987 | SVVVPYEPPEF [TP53_Y220_V225F] | 1.01 | 0.558 | 0.524 | 0.49 | 0.598 | 0.449 | 1.05 | 0.427 | 0.461 | 0.993 | 0.374 | 0.743 | 0.509
31 | 0.741 | 0.717 | 0.683 | SVVVPYEPPEL [TP53_Y220_V225L] | 0.905 | 0.489 | 0.524 | 0.459 | 0.666 | 0.491 | 0.869 | 0.494 | 0.503 | 0.811 | 0.424 | 0.54 | 0.437
32 | 0.972 | 0.689 | 1.66 | SVVVPYESPEV [TP53_Y220_P222S] | 1.36 | 0.57 | 0.609 | 0.561 | 0.647 | 0.488 | 1.13 | 0.578 | 0.566 | 0.867 | 0.463 | 0.73 | 0.509
33 | 0.722 | 0.761 | 0.729 | SVVVTYEPPEV [TP53_Y220_P219T] | 1.57 | 1.06 | 1.61 | 0.493 | 0.708 | 0.752 | 1.32 | 0.516 | 0.697 | 0.969 | 0.779 | 0.961 | 0.623
